# In patent US12397035B2, “Compositions and methods for treatment” (Celosia Therapeutics Pty Ltd, priority 2019, dated 2025):
# Tests used:
# Assay type in all cases: binding
# TDP-43 = molecular target: T1, TDP-43 (Homo sapiens, UniProt Q13148); assay: Co-immunoprecipitation of Fx (α-helix 6 of 14-3-3θ) with TDP-43; details: Fx expressed in cells, FIG. 5
# T1 construct: expressed in transfected cells; host or cells: 293T HEK cells
# Description: Immunoprecipitation. Immunoprecipitation was performed as previously described (Ittner et al., 2009, J Biol Chem 284: 20909-20916). Briefly, 293T HEK cells were co-transfected with variants of TDP-43 in pcDNA3.1/V5 and/or 14-3-3 isoforms/variants. Cells were lysed in RIPA buffer. Equal amounts of proteins were incubated overnight with 1 ul of V5 antibody (Life Technologies) and precipitated using magnetic Protein G beads (Life Technologies). Co-immunoprecipitation was further confirmed by Western blotting using myc antibodies.
# Western blotting. Western blotting was performed as previously described (Ke et al., 2012, PLoS One 7: e35678). Primary antibodies used for immunoblotting were human TDP-43, c-terminal TDP-43, pan-TDP-43 (Proteintech), 14-3-3θ (Abeam), V5, myc (Life Technologies), phospho-TDP-43 S409/410 (Cosmobio), GAPDH (Merck-Millipore).
# Cell culture and staining. All immunorecipitation experiments were carried out in 293T HEK cells. Cells were maintained in DMEM containing 10% fetal bovine serum (FBS) as per standard protocols. SH-SY5Y cells were maintained in DMEM/F-12 containing 10% FBS and used for 14-3-3θ overexpression or knockdown. Stable overexpression and knockdown of 14-3-3θ were achieved through lentiviral transduction. For immunocytochemistry, cells were fixed in 4% PFA and blocked with 3% heat-inactivated goat serum/2% BSA. […]
# FOXO1 = molecular target: T2, FOXO1 (Homo sapiens, UniProt Q12778); assay: Co-immunoprecipitation of Fx with known 14-3-3θ partner FOXO1; details: data not shown
# T2 construct: host or cells: 293T HEK cells
# [1] = molecular target: T3, YES-associated protein (YAP) (Homo sapiens, UniProt P46937); assay: Co-immunoprecipitation of Fx with known 14-3-3θ partner YAP; details: data not shown
# T3 construct: host or cells: 293T HEK cells
# T3 sequence (P46937 whole entry): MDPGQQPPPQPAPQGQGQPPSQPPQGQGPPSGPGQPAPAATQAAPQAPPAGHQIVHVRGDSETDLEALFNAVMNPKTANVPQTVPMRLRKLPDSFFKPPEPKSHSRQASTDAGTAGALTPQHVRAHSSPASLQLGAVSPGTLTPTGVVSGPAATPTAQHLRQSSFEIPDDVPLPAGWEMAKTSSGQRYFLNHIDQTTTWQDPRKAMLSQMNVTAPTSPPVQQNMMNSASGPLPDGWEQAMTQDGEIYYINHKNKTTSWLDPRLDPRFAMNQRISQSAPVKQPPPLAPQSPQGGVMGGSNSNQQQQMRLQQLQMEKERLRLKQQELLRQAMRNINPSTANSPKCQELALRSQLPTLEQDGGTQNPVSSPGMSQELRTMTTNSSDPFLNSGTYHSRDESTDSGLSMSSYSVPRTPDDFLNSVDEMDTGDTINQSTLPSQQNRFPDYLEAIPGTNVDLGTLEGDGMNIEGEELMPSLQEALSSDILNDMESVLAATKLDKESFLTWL
# T2 sequence (Q12778 whole entry, species assumed): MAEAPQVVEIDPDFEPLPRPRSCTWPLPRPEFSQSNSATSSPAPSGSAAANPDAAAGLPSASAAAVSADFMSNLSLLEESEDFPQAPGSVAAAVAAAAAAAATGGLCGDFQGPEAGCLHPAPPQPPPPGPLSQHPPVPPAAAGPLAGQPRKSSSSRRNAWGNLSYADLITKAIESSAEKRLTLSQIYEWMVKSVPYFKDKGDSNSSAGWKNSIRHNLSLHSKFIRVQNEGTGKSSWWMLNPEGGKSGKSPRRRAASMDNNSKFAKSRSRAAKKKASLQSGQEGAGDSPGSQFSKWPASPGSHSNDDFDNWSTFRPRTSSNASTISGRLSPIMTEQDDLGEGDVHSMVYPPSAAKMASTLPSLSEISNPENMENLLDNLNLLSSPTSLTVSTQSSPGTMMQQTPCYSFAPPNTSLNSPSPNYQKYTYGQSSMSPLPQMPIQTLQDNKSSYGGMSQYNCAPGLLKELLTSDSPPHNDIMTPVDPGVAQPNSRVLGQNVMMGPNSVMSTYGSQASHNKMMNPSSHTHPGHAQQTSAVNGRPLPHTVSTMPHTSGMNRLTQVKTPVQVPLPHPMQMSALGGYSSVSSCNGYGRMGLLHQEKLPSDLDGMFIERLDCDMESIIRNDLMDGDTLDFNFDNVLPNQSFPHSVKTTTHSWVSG
# T1 sequence (Q13148 whole entry): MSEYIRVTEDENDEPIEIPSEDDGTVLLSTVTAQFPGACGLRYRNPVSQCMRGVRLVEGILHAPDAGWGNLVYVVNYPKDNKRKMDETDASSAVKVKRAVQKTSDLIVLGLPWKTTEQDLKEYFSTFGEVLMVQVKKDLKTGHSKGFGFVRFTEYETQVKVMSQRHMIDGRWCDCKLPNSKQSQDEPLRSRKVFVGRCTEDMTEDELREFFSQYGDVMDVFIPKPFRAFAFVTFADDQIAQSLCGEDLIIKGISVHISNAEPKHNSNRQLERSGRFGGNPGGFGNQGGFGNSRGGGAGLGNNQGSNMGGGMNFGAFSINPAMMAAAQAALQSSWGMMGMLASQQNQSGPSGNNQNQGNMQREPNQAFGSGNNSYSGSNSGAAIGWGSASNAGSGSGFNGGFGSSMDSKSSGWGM
substance,measurement,setting,value
"Fx: construct including only α-helix 6 (αF) of 14-3-3θ, 30 amino acid sequence SEQ ID NO:2 (amino acids 135-164) (GDDRKQTIDNSQGAYQEAFDISKKEMQPTH; V5 tag in some forms; listed as Homo sapiens)",co-precipitation of TDP-43,TDP-43,co-precipitated TDP-43
same,pull down of FOXO1,FOXO1,failed to pull down
same,pull down of YES-associated protein (YAP),[1],failed to pull down
